Results published in article PMC8410870, “Reconstitution defines the roles of p62, NBR1 and TAX1BP1 in ubiquitin condensate formation and autophagy initiation” (Nature Communications, 2021).

B1: 6xHis-Strep-TEV-GFP-NBR1 (natural protein, human, UniProt Q14596 1-966, looked up)
chain: MEPQVTLNVTFKNEIQSFLVSDPENTTWADIEAMVKVSFDLNTIQIKYLDEENEEVSINSQGEYEEALKMAVKQGNQLQMQVHEGHHVVDEAPPPVVGAKRLAARAGKKPLAHYSSLVRVLGSDMKTPEDPAVQSFPLVPCDTDQPQDKPPDWFTSYLETFREQVVNETVEKLEQKLHEKLVLQNPSLGSCPSEVSMPTSEETLFLPENQFSWHIACNNCQRRIVGVRYQCSLCPSYNICEDCEAGPYGHDTNHVLLKLRRPVVGSSEPFCHSKYSTPRLPAALEQVRLQKQVDKNFLKAEKQRLRAEKKQRKAEVKELKKQLKLHRKIHLWNSIHGLQSPKSPLGRPESLLQSNTLMLPLQPCTSVMPMLSAAFVDENLPDGTHLQPGTKFIKHWRMKNTGNVKWSADTKLKFMWGNLTLASTEKKDVLVPCLKAGHVGVVSVEFIAPALEGTYTSHWRLSHKGQQFGPRVWCSIIVDPFPSEESPDNIEKGMISSSKTDDLTCQQEETFLLAKEERQLGEVTEQTEGTAACIPQKAKNVASERELYIPSVDLLTAQDLLSFELLDINIVQELERVPHNTPVDVTPCMSPLPHDSPLIEKPGLGQIEEENEGAGFKALPDSMVSVKRKAENIASVEEAEEDLSGTQFVCETVIRSLTLDAAPDHNPPCRQKSLQMTFALPEGPLGNEKEEIIHIAEEEAVMEEEEDEEDEEEEDELKDEVQSQSSASSEDYIIILPECFDTSRPLGDSMYSSALSQPGLERGAEGKPGVEAGQEPAEAGERLPGGENQPQEHSISDILTTSQTLETVPLIPEVVELPPSLPRSSPCVHHHGSPGVDLPVTIPEVSSVPDQIRGEPRGSSGLVNSRQKSYDHSRHHHGSSIAGGLVKGALSVAASAYKALFAGPPVTAQPIISEDQTAALMAHLFEMGFCDRQLNLRLLKKHNYNILQVVTELLQLNNNDWYSQRY
notes: NBR1, human, ORF amplified from HeLa cells cDNA; called full-length NBR1 in the results; Tag ends are read from the construct's name; a TEV site lies between Strep and GFP, cleavage is not mentioned; also called GFP-NBR1 WT; full-length NBR1; source: Sf9, purified (HisTrap, SEC on Superose 6); not shown: GFP, N-terminal, kept
B2: GST-FIP200 Claw (aa 1494-1594) (domain or fragment, UniProt Q8TDY2 1494-1594, looked up)
chain: EKIAIRDFQVGDLVLIILDERHDNYVLFTVSPTLYFLHSESLPALDLKPGEGASGASRRPWVLGKVMEKEYCQAKKAQNRFKVPLGTKFYRVKAVSWNKKV
notes: FIP200 Claw domain, aa 1494-1594; The tag's end is read from the construct's name; also called Claw domain of FIP200; source: expressed and purified as the GST-FIP200 CTR construct (previously described); not shown: GST, N-terminal, kept

What was measured:
Assay in all cases: pull-down; microscopy-based protein-protein interaction assay: GST-tagged bait saturated on Glutathione Sepharose 4B beads, fluorescent prey at 2 µM, 25 mM HEPES pH 7.5, 150 mM NaCl, 1 mM DTT, 30 min-1 h at room temperature, beads imaged at the equilibrium by confocal microscopy
Settings in all cases: both partners purified
[1] = molecular target: T1, GST-FIP200 (UniProt Q8TDY2 1-1594)
T1 construct: FIP200, insect codon-optimized gene purchased from GenScript; The tag's end is read from the construct's name; In the functional rows on condensates the protein added was FIP200-GFP (GST cleaved off GST-FIP200-GFP with 3C protease); source: Sf9, purified (Glutathione Sepharose 4B, SEC on Superose 6 Increase); not shown: GST, N-terminal, kept

[2] = molecular target: T2, GST fused to four M1-linked ubiquitin moieties (GST-4xUb) (UniProt P0CG48 1-76; P0CG48 1-76; P0CG48 1-76; P0CG48 1-76)
T2 construct: ubiquitin, first of four M1-linked (head-to-tail) moieties; ubiquitin, second of four M1-linked (head-to-tail) moieties; ubiquitin, third of four M1-linked (head-to-tail) moieties; ubiquitin, fourth of four M1-linked (head-to-tail) moieties; The tag's end is read from the construct's name; not shown: GST, N-terminal, kept
T2 sequence (P0CG48 1-304, one chain of several): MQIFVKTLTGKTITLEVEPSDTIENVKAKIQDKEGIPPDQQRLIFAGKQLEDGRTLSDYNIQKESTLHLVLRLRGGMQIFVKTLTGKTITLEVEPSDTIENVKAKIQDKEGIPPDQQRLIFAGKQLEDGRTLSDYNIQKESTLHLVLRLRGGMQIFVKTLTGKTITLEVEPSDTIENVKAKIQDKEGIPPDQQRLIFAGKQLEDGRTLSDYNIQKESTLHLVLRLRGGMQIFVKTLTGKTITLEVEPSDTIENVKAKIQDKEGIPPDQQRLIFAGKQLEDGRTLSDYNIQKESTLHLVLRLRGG

[3] = molecular target: B1

binding result [1]	binding result [2]	binding result [3]	Binder
binds	binds	–	B1
–	–	binds	B2
